The assay has as its target HER2 expressed on the surface of breast carcinoma cells (BT-474; SK-BR-3) (human) (UniProt P04626). Briefly: cell-based or functional assay.

The substance “HER-con4(H) (…® with the 2xcon4 MRD fused to the heavy chain) (bispecific antibody)” registered an ADCC on SK-BR-3 cells with human PBMCs (specific release), IC50 of 0.067 nM.

The values are drawn from US20140127200A1.
